According to paper PMC4633670, “Structural Characterization of a Newly Identified Component of α-Carboxysomes: The AAA+ Domain Protein CsoCbbQ” (Scientific Reports, 2015):

T1: N-terminal histidine-tagged CsoCbbO (Hneap_0910) (Halothiobacillus neapolitanus, UniProt D0KZ80 1-788)
T1 construct: CsoCbbO, cso-associated CbbO of Halothiobacillus neapolitanus, locus tag Hneap_0910; 788 amino acids, VWA domain in its C-terminus; amplified from genomic DNA with primers from the ATG to the stop codon; Cloned into the BamHI and HindIII sites of pETDuet-1; It was insoluble when expressed alone in E. coli; also called HT-CbbO; hisCsoCbbO; not shown: His6, N-terminal, kept
T1 sequence (looked up): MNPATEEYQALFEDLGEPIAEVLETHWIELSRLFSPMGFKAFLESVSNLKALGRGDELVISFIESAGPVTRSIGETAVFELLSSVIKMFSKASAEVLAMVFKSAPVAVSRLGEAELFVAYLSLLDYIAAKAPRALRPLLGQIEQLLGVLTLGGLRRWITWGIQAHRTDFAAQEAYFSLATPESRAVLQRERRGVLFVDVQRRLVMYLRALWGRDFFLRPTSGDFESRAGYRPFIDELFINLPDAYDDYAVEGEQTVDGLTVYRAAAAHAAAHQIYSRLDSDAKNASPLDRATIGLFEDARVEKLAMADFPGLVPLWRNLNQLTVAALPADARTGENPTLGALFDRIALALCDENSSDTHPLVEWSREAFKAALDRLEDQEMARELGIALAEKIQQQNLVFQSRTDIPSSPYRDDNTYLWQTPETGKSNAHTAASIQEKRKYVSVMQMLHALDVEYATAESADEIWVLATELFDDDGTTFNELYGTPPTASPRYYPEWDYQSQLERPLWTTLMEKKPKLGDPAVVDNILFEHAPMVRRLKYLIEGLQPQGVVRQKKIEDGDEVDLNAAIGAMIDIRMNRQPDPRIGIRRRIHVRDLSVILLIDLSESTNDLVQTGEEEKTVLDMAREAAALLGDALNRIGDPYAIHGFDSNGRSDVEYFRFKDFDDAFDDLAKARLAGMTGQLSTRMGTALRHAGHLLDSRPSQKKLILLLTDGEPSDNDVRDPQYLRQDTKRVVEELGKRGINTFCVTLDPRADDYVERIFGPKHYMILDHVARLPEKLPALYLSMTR


Legend:
[1] = target: Hexa-histidine-tagged H. nea CsoCbbQ (Hneap_0905) (Halothiobacillus neapolitanus); test: SEC; size exclusion data of recombinant CsoCbbQ (Supplementary Fig. 2); conditions not shown
[2] = target: Hexa-histidine-tagged H. nea CsoCbbQ (Hneap_0905) (Halothiobacillus neapolitanus); test: crystal structure; His6-tagged CsoCbbQ crystallised with ATP in the mother liquor, ADP bound; 22 C, 0.1 M HEPES pH 7.5, 6% PEG-8000, 8% ethylene glycol; two molecules per asymmetric unit, hexamer by crystal symmetry
[3] = target: the molecule itself; test: SEC; purified CsoCbbO/Q complex on Superdex 200 10/300 GL; 10 mM Tris-HCl pH 8.0, 100 mM NaCl, 0.25 ml/min; mass estimated against protein standards
[4] = target: T1, N-terminal histidine-tagged CsoCbbO …; test: as above; settings: both partners purified

| stoichiometry N [1] | stoichiometry N [2] | stoichiometry N [4] | Molecule | stoichiometry N [3] |
| --- | --- | --- | --- | --- |
| 6 | 6 | – | Hexa-histidine-tagged H. nea CsoCbbQ (Hneap_0905) (enzyme) | – |
| – | – | ~6 | non-His6-tagged CsoCbbQ (NT-CbbQ) (enzyme, Halothiobacillus neapolitanus, UniProt D0KZ75 1-267, looked up, CsoCbbQ of Halothiobacillus neapolitanus, locus tag Hneap_0905) MTQNADQYRVRKEPYYRAVQDEIELYRAGYEARIPMMLKGPTGCGKSRFVEHMAWKLNRPLITIACNEDMTASDLVGRYLLDKDGTRWQDGPLTVAARIGAICYLDEIVEARQDTIVVIHPLTDHRRVLPLEKKGELVEAHPDFQIVISYNPGYQSLMKDLKQSTKQRFGALDFDYPKPDIEAEIVSHEAGVDKDTAEKLVQIAQKARNLKGHGLDEGLSTRLLVYAGKLIAKGVDARAACTMTLVNPITDDVDMRDALDTVVKTFF | ~6 |
